From the supplement of paper PMC11780869

Test system: Bacillus subtilis
Test: cleaved RNA product abundance (RNA/gDNA barcode ratio) relative to median wild-type variant (ratio to wild type); higher = more accumulation of the downstream cleavage product
Outline: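 Cleaved product abundance is expressed as the RNA:gDNA barcode ratio per construct, scaled to the median construct carrying the unmutated site. The constructs were barcoded, mutagenized RNase Y cleavage-site windows in truncated aprE or tetM reporter mRNAs integrated into the B. subtilis chromosome. Cultures grew in LB at 37°C from OD600 0.0003 to 0.3 before cleaved RNA was gel-selected and barcode-sequenced.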

[1] = experiment (reporter, strain, medium): exp 8a: truncated aprE reporter, strain BJT201 with 2% xylose (RNase J1 expressed), cleavage site: glnRA (positions -5 to +31 mutated)
[2] = experiment (reporter, strain, medium): exp 2b: truncated aprE reporter, strain BJT200, cleavage site: cggR-gapA (positions -7 to +36 mutated)
[3] = experiment (reporter, strain, medium): exp 4a: truncated aprE reporter, strain BJT201 with 2% xylose (RNase J1 expressed), cleavage site: cggR-gapA (positions -7 to +36 mutated)
[4] = experiment (reporter, strain, medium): exp 6: tetM reporter, strain 168, cleavage site: cggR-gapA (positions -7 to +36 mutated)

Row | Sequence | cleaved RNA product abundance [1] | cleaved RNA product abundance [3] | other results
1 | CGACATGTCCCGCTTCTTTCATTATTCCGATAGCAACTGTTTTGCTATATACATTTACCTTTTAAGAGGAGGAAT | 0.898 |  | 
2 | ACAGACGAAGGAGCCGCAAAGAAGTTAATAAGGGATGAATAATCCCTCAATATAAATATCTCTCACTTATTTAAA |  | 0.349 | cleaved RNA product abundance [2]: 0.264; cleaved RNA product abundance [4]: 0.555
3 | CGACATGTCCCGCTTCTTTCATTAATCCATTAGCAACTGTTTTGCTACATACATTTACCTTTTAAGAGGAGGAAT | 0.772 |  | 
4 | ACAGACGAAGGAGCCGCAAAGAATTTATTAAGGGATGAATAATCCCTCAATATAAATGTCTCTCACTTATTTAAA |  | 0.282 | 
5 | ACAGACGAAGGAGCCGCAAAGAAGTTATTAACGGATGAATAATCCCTCAATATAGATATCTCTCACTTATTTAAA |  | 0.158 | 
6 | CGACATGTCCCGCTTCTTTCATTAATCCGTTAGCAAATGTTTGGCTATATACATTTACCTTTTAAGAGGAGGAAT | 0.43 |  | 
7 | ACAGACGAAGGAGCCGCAAAGAAGTTATTAATGGATGAATAATCCCTCAATATAAATTTCTCTCACTTATTTAAA |  | 0.138 | cleaved RNA product abundance [2]: 0.112
8 | ACAGACGAAGGAGCCGCAAAAAAGTTATTAAGGGATGAATAATCCCTCAACATAAATATCTCTCACTTATTTAAA |  | 0.272 | cleaved RNA product abundance [2]: 0.239
9 | CGACATGTCCCGCTTCTTTCATTAATCCTTTAGCAACTGTTTTTCTATATACATTTACCTTTTAAGAGGAGGAAT | 0.478 |  | 
10 | ACAGACGAAGGAGCCGCAAAGAAGTTATTAAGGGATGAATAATCCATAAATATAAATATCTCTCACTTATTTAAA |  | 0.261 | cleaved RNA product abundance [2]: 0.17
11 | ACAGACGAAGGAGCCGCAAAGAAGTTATTAAGGGATGAATAATCCCTCAAAATAAATTTCTCTCACTTATTTAAA |  | 0.285 | 
12 | CGACATGTCCCGCTTCTTTCATTAATCCGTTAGCAACTGTTTTGCTATAAACCTTTACCTTTTAAGAGGAGGAAT | 0.163 |  | 
13 | ACAGACGAAGGAGCCGCAAAGCAGTTATTAAGGGATGAATAATCCCTAAATATAAATATCTCTCACTTATTTAAA |  | 0.591 | 
14 | ACAGACGAAGGAGCCGCAAAGAAGTTATTAAGGGATGAATATTCTCTCAATATAAATATCTCTCACTTATTTAAA |  | 0.343 | cleaved RNA product abundance [2]: 0.265
15 | CGACATGTCCCGCTTCTTTCATTAATCCGTTACCAAGTGTTTTGCTATATACATTTACCTTTTAAGAGGAGGAAT | 0.272 |  | 
16 | CGACATGTCCCGCTTCTTTCATTAATCCGTTAGGAACTGTTTTGCTATATATATTTACCTTTTAAGAGGAGGAAT | 0.367 |  | 
17 | CGACATGTCCCGCTTCTTTCATTAATCCGTTAGCAACTGTTTTGCTATATACAATTGCCTTTTAAGAGGAGGAAT | 0.532 |  | 
18 | CGACATGTCCCGCTTCTTTCATTAATCCGTTAGCAACTATTTTGCTATATACATTTACATTTTAAGAGGAGGAAT | 3.23 |  | 
19 | CGACATGTCCCGCTTCTTTCATTATTCCGTTAACAACTATTTTGCTATATACATTTACCTTTTAAGAGGAGGAAT | 0.283 |  | 
20 | CGACATGTCCCGCTTCTTTCATTAATGCTTTAGCAACTGTTTTGCTATATACATTTACCTTTTAAGAGGAGGAAT | 0.618 |  | 

Row | Sequence | cleaved RNA product abundance [1] | cleaved RNA product abundance [3] | other results
21 | ACAGACGAAGGAGCCGCAAAGAAGTTATTAAGGGATGAATTATCCCACAATATAAATATCTCTCACTTATTTAAA |  | 0.319 | 
22 | ACAGACGAAGGAGCCGCAAAGAAGTTATTAAGAGAAGAATAAACCCTCAATATAAATATCTCTCACTTATTTAAA |  | 0.0499 | 
23 | CGACATGTCCCGCTTCTTTCATTAATCCGTTAGCAACTGTTTTGCTATATACAATTACCTTTTAAGAGGAGGAAT | 0.983 |  | 
24 | ACAGACGAAGGAGCCGCAAAGAAGTTATGAACGGATGAATAATCCCTCAATATAAATATCTCTCACTTATTTAAA |  | 0.242 | cleaved RNA product abundance [2]: 0.177
25 | ACAGACGAAGGAGCCGCAAAGAAGTTATTAAGGGAAGAATAATCCGTCAATATAAATATCTCTCACTTATTTAAA |  |  | cleaved RNA product abundance [2]: 0.0722
26 | CGACATGTCCCGCTTCTTTCATTAATCCGTTAGCAACTATTTTGCTATATATATTTACCTTTTAAGAGGAGGAAT | 1.42 |  | 
27 | ACAGACGAAGGAGCCGCAAAGAAGTTATTAAGGCATGAATAATCTCTCAATATAAATATCTCTCACTTATTTAAA |  | 0.125 | cleaved RNA product abundance [2]: 0.0853
28 | CGACATGTCCCGCTTCTTTCATTATTCCGTTAGCAACTGTTTTGCGATATACATTTACCTTTTAAGAGGAGGAAT | 0.52 |  | 
29 | ACAGACGAAGGAGCCGCAAAGAAGTTATTAAGTAATGAATAATCCCTCAATATAAATATCTCTCACTTATTTAAA |  | 0.099 | cleaved RNA product abundance [2]: 0.102
30 | ACAGACGAAGGAGCCGCATAGAAGTTATTAAGGGATGAATAATCACTCAATATAAATATCTCTCACTTATTTAAA |  | 0.166 | cleaved RNA product abundance [2]: 0.134
31 | ACAGACGAAGGAGCCGCAAAGAAGTTATTAAGAGATGAATAATCGCTCAATATAAATATCTCTCACTTATTTAAA |  | 0.0997 | 
32 | ACAGACGAAGGAGCCGCAAAGAAATTATGAAGGGATGAATAATCCCTCAATATAAATATCTCTCACTTATTTAAA |  | 0.386 | 
33 | ACAGACGAAGGAGCCGCAGATAAGTTATTAAGGGATGAATAATCCCTCAATATAAATATCTCTCACTTATTTAAA |  | 0.636 | 
34 | ACAGACGAAGGAGCCGCGAAGAAGTTATTTAGGGATGAATAATCCCTCAATATAAATATCTCTCACTTATTTAAA |  |  | cleaved RNA product abundance [2]: 0.572
35 | ACAGACGAAGGAGCCGCAGAGAAGTTATTAAGGGATGAATAATCCCACAATATAAATATCTCTCACTTATTTAAA |  | 0.235 | 
36 | CGACATGTCCCGCTTCTTTCATTAATCAGTTAGCAACAGTTTTGCTATATACATTTACCTTTTAAGAGGAGGAAT | 0.832 |  | 
37 | CGACATGTCCCGCTTCTTTCATTAATCCGTTAGCAACTGATTTGCTATATACATTTATCTTTTAAGAGGAGGAAT | 1.36 |  | 
38 | ACAGACGAAGGAGCCGCAAAGAAGTTATTAAGGGAAGAATAATCACTCAATATAAATATCTCTCACTTATTTAAA |  | 0.104 | cleaved RNA product abundance [2]: 0.109
39 | CGACATGTCCCGCTTCTTTCATTAATCCGTTAGCAACTGTTTTACTATATACATTTACCTTTTAAGAGGAGGAAT | 0.619 |  | 
40 | ACAGACGAAGGAGCCGCAAAGAAGTCATTAAGGGATGAATAATCCCTCAATATAAACATCTCTCACTTATTTAAA |  | 0.333 | 

Row | Sequence | cleaved RNA product abundance [1] | cleaved RNA product abundance [3] | other results
41 | CGACATGTCCCGCTTCTTTCATTAATCCGTTAGCAACTGTTTTACGATATACATTTACCTTTTAAGAGGAGGAAT | 0.559 |  | 
42 | CGACATGTCCCGCTTCTTTCATTAATCCGTTACCAAATGTTTTGCTATATACATTTACCTTTTAAGAGGAGGAAT | 0.256 |  | 
43 | CGACATGTCCCGCTTCTTTCATTAATCCGTTACCAACTGTGTTGCTATATACATTTACCTTTTAAGAGGAGGAAT | 0.277 |  | 
44 | CGACATGTCCCGCTTCTTTCATTAATCCGTTACCAACTGTTTTGCTATATCCATTTACCTTTTAAGAGGAGGAAT | 0.206 |  | 
45 | CGACATGTCCCGCTTCTTTCATTATTCCGTTAGCAACTGTTTTGCTATATACCTTTACCTTTTAAGAGGAGGAAT | 0.383 |  | 
46 | CGACATGTCCCGCTTCTTTCATTATTCCGTTAGCAACTGTTTTGCTATATACACTTACCTTTTAAGAGGAGGAAT | 1.07 |  | 
47 | CGACATGTCCCGCTTCTTTCATTAATCCGTTAGCAAGTGTTTTTCTATATACATTTACCTTTTAAGAGGAGGAAT | 0.603 |  | 
48 | ACAGACGAAGGAGCCGCAAATAAGTTATTAAGGGATGAATAATCCCCCAATATAAATATCTCTCACTTATTTAAA |  | 0.23 | 
49 | ACAGACGAAGGAGCCGCAAAGAAGTTAATAAGGGATGAATAATCCCTCAATATACATATCTCTCACTTATTTAAA |  | 0.313 | 
50 | ACAGACGAAGGAGCCGCAAAGAAGTTATTAAGGAATGAATAATCCCTTAATATAAATATCTCTCACTTATTTAAA |  | 0.588 | cleaved RNA product abundance [2]: 0.68
51 | CGACATGTCCCGCTTCTTTCATTAATCCGTTAGCAACTGTTTTGCCATATACATTTACCTTTTAAGAGGAGGAAT | 0.205 |  | 
52 | CGACATGTCCCGCTTCTTTCATTAATCCGTGAGCAACTGTTTTGCTATATACATTTAACTTTTAAGAGGAGGAAT | 0.854 |  | 
53 | CGACATGTCCCGCTTCTTTCATTAATCCGTTAGCGACAGTTTTGCTATATACATTTACCTTTTAAGAGGAGGAAT | 0.233 |  | 
54 | ACAGACGAAGGAGCCGCAAAGAAGTTATTAAGAGATGAATAATCCCTAAATATAAATATCTCTCACTTATTTAAA |  | 0.158 | cleaved RNA product abundance [2]: 0.141; cleaved RNA product abundance [4]: 0.179
55 | ACAGACGAAGGAGCCGCAAAGAAGTTATAAAGGGATGAATAATCCCACAATATAAATATCTCTCACTTATTTAAA |  | 0.183 | cleaved RNA product abundance [2]: 0.175
56 | ACAGACGAAGGAGCCGCAAAGAAGTTATTAAGGGATAAATAAGCCCTCAATATAAATATCTCTCACTTATTTAAA |  | 0.821 | 
57 | ACAGACGAAGGAGCCGCAAAGAAGTTATTAAGGGATGAATAATCCTTCAGTATAAATATCTCTCACTTATTTAAA |  | 0.166 | 
58 | ACAGACGAAGGAGCCGCAAAGAAGTTATTAAGGGATGAATAATCCTTCAATATAAATATCTCTCACTTATTTAAA |  | 0.576 | cleaved RNA product abundance [2]: 0.442; cleaved RNA product abundance [4]: 0.617
59 | CGACATGTCCCGCTTCTTTCATTAATCCGTTACCAACTGTTTTGCTATATACATTTACCTTTTAAGAGGAGGAAT | 0.255 |  | 
60 | CGACATGTCCCGCTTCTTTCATTAATCCCTTAGCAACTGTTTTGCTATATACAATTACCTTTTAAGAGGAGGAAT | 0.305 |  | 
